This note sets out measurements from a protein production outcome set (Wang et al. 2014).

The series can be described thus: label from the status in PepcDB records.

With “MIRFTMMPGEDGDCLLLEYGDGTFLRRILLDGGRSGTYPRIRPTLAGLDGLVDVLVVTHVDQDHLLGVLALLNDPDRSVEFGDVWFNGFDHLLEFEGFGAQDGEKLTSALVEQKLPWNDAFGGLSVEVGRELVWFDDGSTVDVLSPDRGQLESLAPDWVKECAKHGLIPGRDPDEIPLVPGFEHFGGVNVEELAARPFRPDTSKTNLTSIGLLFEFEGKRIILTGDADDRRLVRSIRPRAEAEGGRLHVDVLKVAHHGSDHNLSKDLLDLIDCDRYLISTSGARHDHPNAIAVARILKHGGAKKEIVFNYRDRAAIWDVDSLKDRFGYTVTAPAPDAEDGFVSFEL”, the protein production entry was “failed”.
Next, “MIRLGKMSDLDQILNLVEEAKELMKEHDNEQWDDQYPLLEHFEEDIAKDYLYVLEENDKIYGFIVVDQDQAEWYDDIDWPVNREGAFVIHRLTGSKEYKGAATELFNYVIDVVKARGAEVILTDTFALNKPAQGLFAKFGFHKVGEQLMEYPPYDKGEPFYAYYKNLKE”: “failed”.
Next, “MIRVLFFIRMTMSRTIQRICLFLFCLPVFGSCMKWDYGEMEDFSVSASGLFITNEGNFQYSNATLSYYDPATCEVENEVFYRANGFKLGDVAQSMVIRDGIGWIVVNNSHVIFAIDINTFKEVGRITGFTSPRYIHFLSDEKAYVTQIWDYRIFIINPKTYEITGYIECPDMDMESGSTEQMVQYGKYVYVNCWSYQNRILKIDTETDKVVDELTIGIQPTSLVMDKYNKMWTITDGGYEGSPYGYEAPSLYRIDAETFTVEKQFKFKLGDWPSEVQLNGTRDTLYWINNDIWRMPVEADRVPVRPFLEFRDTKYYGLTVNPNNGEVYVADAIDYQQQGIVYRYSPQGKLIDEFYVGIIPGAFCWK”: “failed”; “MISDIRKDAEVRMDKCVEAFKTQISKIRTGRASPSLLDGIVVEYYGTPTPLRQLASVTVEDSRTLKINVFDRSMSPAVEKAIMASDLGLNPNSAGSDIRVPLPPLTEERRKDLTKIVRGEAEQARVAVRNVRRDANDKVKALLKDKEISEDDDRRSQDDVQKLTDAAIKKIEAALADKEAELMQF”: “not failed”; “MISDLPDDLESEILSRVPTKSLAKLQTMGNTRLVVWDSSTGETRWIKPRTRFRNDDYYGLGYVNSKSSGHSFKILRSCYYRNDQKQWVAEFEIYEFGSDTWRVLDYFTHDYGVFSSGGPLKRNTYWVAGDKEMGMFMLYFDFTRERFGHFPLPFKSFNREDTASLSVVREEKLSVLHQKILEFSNEMKIWLTNKIDETIELSWSNFVLTVDYDKFNLPSVVNVASFLLDEENKVAVCSDIDVDDENRTRVYVVGEDIYKQVYKDTTKASYFNCSTSCSIYW”: “failed”.
The same measure for “MISGFESIQLTTLILIVVAGFAAGWVDAVVGGGGLIQLPALLLVPGITPVQALATNKMGSIFGTTTSAVTYYRRVGPDLKTAVPMAVIALAGSFGGAILAASLPASVFKPIIVLALIAVAIFTALRPGAGELTALRHDGHKHYVVACLIGAVIGFYDGLIGPGTGSFLVIALVSAMGYAFLEASAKAKIVNMATNAGALIFFLPHGSLLWGVGLILGLANMAGGYLGARTAVARGSKFVRLVFLMVVAALIIKLGMDVWNENFAA”: “failed”; for “MISGNTINHKNNMAGLKSLVKDTALYGLSSMVGRFLNYLLVPLYTAVLPAASGGYGVVTNVYAWAGLIMVLLTFGMETGFFRFANKSEEDPVKVYANSLISVGGISLIFAILCLTFLQPVSHLLEYGDHPDFIGMMIIVMALDAFLCIPFAYLRFKKRPIKFVAIKFVSIIANIVLNLFFLLLCPWLHEHFPAWVDWFYNPTYLVGYIFVSNLITTCLQLFCLIPELRGFAYRVDKQLLKRMLIYSFPILIFGLVGILNQTVDKIIYPFLFADRQEGLVQLGIYGAATKIAMVMAMFTQAFRYAYEPFVFGKQKEGDNRRMYAQAMKYFLIFAMFAFLVVMFYLDLLRYMVAPDYWAGLSVVAIVIGAEIFKGIYFNLSFWYKLIDETRWGAYFSIVGCVIIVGMNVMLVPTYGFVASAWASVAGYAVITILSYWIGQKKYPIHYDLKHLGTYVLFTAVLYVIGEWVPIENIVLRLAFRTVLLLIFMAYVVRKDLPLSQIPVINRIIKKK”: “failed”; for “MISLPYLQRFALSGQVALVTGSARGLGLRIAQALAGSGAHVLLNGRDAHAVEAAVSDLRQQGLRASALPFDVSDEQATEQAFARIDAEHGRLDILVNNVGARNRKPLAETSPAEIRAMMDTNLVAGILLARLAAQRMVRQRYGRLIAITSVAGELARANDAVYPAAKQGLTGMMRALAVEFGRHGITSNAIAPGAFATETNAAMANDPQAGAAMAARNPTGRWGDPEEIAGAAVFLASPAASYVNGHVLVVDGGLSVQF”: “failed”.
